Test results from US20230121197A1, “ANTIBODIES SPECIFICALLY BINDING THE CARBOXYMETHYLATED CATALYTIC SUBUNIT OF PROTEIN PHOSPHATASE 2A” (Medizinische Universität Wien, priority 2020, published 2023).

Key:
HA-PP6c = target: T1, HA-PP6c (Mus musculus, UniProt Q9CQR6); experiment: Immunoblotting of anti-HA immunoprecipitates of NIH3T3 cells, PP6c; assay type: binding
T1 construct: expressed in transfected cells; host or cells: NIH3T3 mouse fibroblasts, retroviral pBabe hygro HA-PP6c
T1 sequence (Q9CQR6 1-305): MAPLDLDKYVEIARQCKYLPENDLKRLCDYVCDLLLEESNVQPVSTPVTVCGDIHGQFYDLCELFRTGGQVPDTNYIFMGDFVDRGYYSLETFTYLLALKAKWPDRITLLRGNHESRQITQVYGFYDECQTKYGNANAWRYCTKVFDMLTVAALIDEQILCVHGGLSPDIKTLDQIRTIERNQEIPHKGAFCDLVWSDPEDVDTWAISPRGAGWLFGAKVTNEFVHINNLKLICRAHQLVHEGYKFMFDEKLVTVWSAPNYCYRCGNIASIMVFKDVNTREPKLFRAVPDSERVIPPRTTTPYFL
Text: The catalytic subunits of protein phosphatase 4 (PP4c) and 6 (PP6c) are closely related to PP2Ac with approximately 50% sequence identity. PP2Ac, PP4c and PP6c share the C-terminal DYFL or YFL motif, respectively (FIG. 8A). Therefore, a potential cross-reactivity of 7C10-C5 with α-carboxymethylated PP4c and/or PP6c was examined and compared to another anti-carboxymethyl-PP2Ac antibody 2A10. 2A10 is a carboxymethyl-PP2Ac specific antibody that has been raised against a larger C-terminal PP2Ac peptide (amino acids 302-309, carboxymethylated Leu^309) and that has been shown before to cross-react with α-carboxymethylated PP4c (Lee (2014), Biochem Biophys Res Commun 452, 42-47). HA tagged human PP2Ac a, mouse HA PP4c or mouse HA PP6c from NIH3T3 mouse fibroblasts stably expressing these HA-tagged proteins were immunoprecipitated. The precipitated proteins were then analyzed by immunoblotting with anti-carboxymethyl-PP2Ac antibodies 7C10-C5 or 2A10.
Specifically, 500 μl corresponding to 1 mg of whole cell protein lysates of NIH3T3 mouse fibroblasts were incubated with anti-hemagglutinin (HA) antibody (clone 12CA5) crosslinked to BSA-coated protein A-Sepharose beads (GE-Healthcare) to immunoprecipitate HA-epitope tagged PP2Ac, PP4c or PP6c for 1 h. […]

[1] = target: T2, mouse HA PP6c, carboxymethylated (immunoprecipitated from NIH3T3 cells) (mouse, UniProt Q9CQR6 1-305, C-terminal leucine α-carboxyl methyl ester (cellular methylation)); experiment: Western blot of anti-HA immunoprecipitates from NIH3T3 cells, with quantification, N=3
T2 construct: mature; also called methylated PP6c; not shown: HA tag
T2 sequence (looked up): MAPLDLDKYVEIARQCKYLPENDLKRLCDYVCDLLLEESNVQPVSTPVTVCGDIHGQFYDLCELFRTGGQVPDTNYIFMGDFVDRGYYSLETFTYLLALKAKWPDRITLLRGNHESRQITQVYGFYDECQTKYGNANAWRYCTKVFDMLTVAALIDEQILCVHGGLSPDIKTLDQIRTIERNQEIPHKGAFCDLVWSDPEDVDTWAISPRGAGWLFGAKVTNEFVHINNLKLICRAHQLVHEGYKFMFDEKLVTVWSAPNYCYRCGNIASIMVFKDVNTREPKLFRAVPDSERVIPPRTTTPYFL
Text: (A) Alignment of the C-termini of mammalian catalytic PP2Ac, PP4c and PP6c subunits (B) Immunoblotting of anti HA-immunoprecipitates of NIH3T3 cells either infected with retroviral supernatants of pBabe hygro (control) or pBabe hygro HA-PP2Ac (label “HA-PP2A), pBabe hygro HA-PP4c (label “HA-PP4”) or pBabe hygro HA-PP6c (label HA-PP6) using indicated antibodies. The label “7C10” refers to the 7C10-C5 monoclonal antibody. To equilibrate HA levels, 2 times more of the HA-PP4c and 3 times more of the HA-PP6c immunoprecipitates was loaded than HA-PP2Ac. The panel originates from 3 different blotting membranes for each antibody indicated in the panel. The blots are representative of N=3 independent immunoprecipitation experiments. The 2A10 and 7C10-C5 signals were quantified from N=3 independent experiments, normalized to the HA levels and the HA-PP2Ac signals were set to 1. Average and standard deviation (error bars) are shown. Statistical significance was assessed using ANOVA followed by Tukey's HSD as a post-hoc test. […]

Molecule	detection of PP6c (HA-PP6c; Western blot of HA immunoprecipitates)	binding to carboxymethylated PP2Ac stronger than to carboxymethylated PP6c (HA-PP6c; Western blot, suggested since no discernable signal)	binding result [1]
7C10-C5: α-carboxymethylation specific mouse monoclonal IgG1 antibody from single clone hybridoma 7C10-C5 (DSM ACC3350) (antibody, Amino acid sequence of the recombinant 7C10-C5 heavy chain; Amino acid sequence of the recombinant 7C10-C5 light chain) heavy: MYRMQLLSCIALSLALVTNSDVQLQESGPGLVKPSQSLSLTCSVTGYSITSGYYWNWIRQFPGNKLEWMGYISYDGSNNYNPSLKNRISITRDTSKNQFFLKLNSVTTEDTATYYCAGRFAYWGQGTLVTVSAAKTTAPSVYPLAPVCGDTTGSSVTLGCLVKGYFPEPVTLTWNSGSLSSGVHTFPAVLQSDLYTLSSSVTVTSSTWPSQSITCNVAHPASSTKVDKKIEPRGPTIKPCPPCKCPAPNLLGGPSVFIFPPKIKDVLMISLSPIVTCVVVDVSEDDPDVQISWFVNNVEVHTAQTQTHREDYNSTLRVVSALPIQHQDWMSGKEFKCKVNNKDLPAPIERTISKPKGSVRAPQVYVLPPPEEEMTKKQVTLTCMVTDFMPEDIYVEWTNNGKTELNYKNTEPVLDSDGSYFMYSKLRVEKKNWVERNSYSCSVVHEGLHNHHTTKSFSRTPGK light: MDMRVPAQLLGLLLLWLSGARCDVLMTQTPLSLPVSLGDQASISCRSSQSIVHSNGNTYLEWYLQKPGQSPKLLIYKVSNRFSGVPDRFSGSGSGTDFTLKINRVEAEDLGVYYCFQGSHVPWTFGGGTKLEIKADAAPTVSIFPPSSEQLTSGGASVVCFLNNFYPKDINVKWKIDGSERQNGVLNSWTDQDSKDSTYSMSSTLTLTKDEYERHNSYTCEATHKTSTSPIVKSFNRNEC	did not detect	100-fold or even 500-fold	–
7C10-C5 monoclonal antibody (antibody, V domains shown, Used as hybridoma culture supernatant (ELISA, Western blot, IHC) or at 50 µg/mL (SPR); also called 7C10 X63; clone 7C10-C5) VH: DVQLQESGPGLVKPSQSLSLTCSVTGYSITSGYYWNWIRQFPGNKLEWMGYISYDGSNNYNPSLKNRISITRDTSKNQFFLKLNSVTTEDTATYYCAGRFAYWGQGTLVTVSA VL: DVLMTQTPLSLPVSLGDQASISCRSSQSIVHSNGNTYLEWYLQKPGQSPKLLIYKVSNRFSGVPDRFSGSGSGTDFTLKINRVEAEDLGVYYCFQGSHVPWTFGGGTKLEIK	–	–	no binding
